# Data as given in PMC7086394 (Bioconjugate Chemistry, 2020).
# Where no end group is shown, it is not given here.
# T1: K3GW (acetylated N-terminus)
# T1 peptide: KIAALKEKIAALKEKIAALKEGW
# Molecular target: T1, K3GW
# Assay: ITC
binder,measurement,value
Ac-EIAALEKEIAALEKEIAALEKGY [E3GY],Kd,73 nM
same,dH,-18.4 kcal/mol
